Results published in patent US20040132093A1 (AVENTIS PHARMA S A, published 2004).

Tests used:
[1] = target: T1, OBRs-YFP fusion protein (short form of the leptin receptor fused at its C-terminal end to YFP) (human); test: BRET in living cells, fusion proteins expressed in equimolar amounts
T1 construct: also called OB-R-YFP; acceptor fusion protein
Protocol: 48 hours after transfection, HeLa, COS and HEK 293 cells expressing OBR were detached and washed with PBS. 1-2×10⁵ cells were distributed into 96-well optical plates (Packard Instrument Company, Meriden, Conn.) in the presence or absence of ligands, at 25° C. Membranes prepared from cells expressing OBR were used for the measurements of BRET. The substrate, coelenterazine h (Molecular Probes, Eugene, Oreg.), was added at a final concentration of 5 μM and the reading was carried out with a Fusion™ fluoro/luminometer (Packard Instrument Company, Meriden, Conn.), which permits the sequential integration of the luminescence signals detected with two filters (Luc filter: 485+10 nm; YFP filter: 530±12.5 nm). The BRET ratio is defined as the difference in the emission at 530 nm/485 nm of the cotransfected Luc and YFP fusion proteins and the emission at 530 nm/485 nm of the Luc fusion protein alone. The results are expressed in milliBRET units (mBU), 1 mBRET unit corresponding to the value of the BRET ratio multiplied by 1 000. The following ligands were used to determine the specificity of the assay: recombinant human erythropoietin (EPO), insulin (Ins), lipopolysaccharide (LPS, Sigma Aldrich, St. Louis, USA), recombinant human trombopoietin (TPO), GM-CSF, interleukin 3 (IL3), interleukin 6 (IL6), prolactin (PRL), SCF, EGF and TNFα. […]

[2] = target: T2, protein from fusion between YFP and the insulin receptor (Boute et al., 2001) (UniProt P06213 28-1382); test: BRET in living cells coexpressing the fusion proteins
T2 construct: whole, on cells; Specificity control in BRET; also called insulin receptor-YFP; not shown: YFP

binding result [1]: binds
binding result [2]: no binding
B1: OBRs-Luc fusion protein (short form of the leptin receptor fused at its C-terminal end to Renilla luciferase) (receptor)
chain: ASISARQEQKLISEEDLTRYPITPWRFKLSCMPPNSTYDYFLLPAGLSKNTSNSNGHYETAVEPKFNSSGTHFSNLSKTTFHCCFRSEQDRNCSLCADNIEGTTFVSTVNSLVFQQIDANWNIQCWLKGDLKLFICYVESLFKNLFRNYNYKVHLLYVLPEVLEDSPLVPQKGSFQMVHCNCSVHECCECLVPVPTAKLNDTLLMCLKITSGGVIFRSPLMSVQPINMVKPDPPLGLHMEITDDGNLKISWSSPPLVPFPLQYQVKYSENSTTVIREADKIVSATSLLVDSILPGSSYEVQVRGKRLDGPGIWSDWSTPRVFTTQDVIYFPPKILTSVGSNVSFHCIYKKENKIVPSKEIVWWMNLAEKIPQSQYDVVSDHVSKVTFFNLNETKPRGKFTYDAVYCCNEHECHHRYAELYVIDVNINISCETDGYLTKMTCRWSTSTIQSLAESTLQLRYHRSSLYCSDIPSIHPISEPKDCYLQSDGFYECIFQPIFLLSGYTMWIRINHSLGSLDSPPTCVLPDSVVKPLPPSSVKAEITINIGLLKISWEKPVFPENNLQFQIRYGLSGKEVQWKMYEVYDAKSKSVSLPVPDLCAVYAVQVRCKRLDGLGYWSNWSNPAYTVVMDIKVPMRGPEFWRIINGDTMKKEKNVTLLWKPLMKNDSLCSVQRYVINHHTSCNGTWSEDVGNHTKFTFLWTEQAHTVTVLAINSIGASVANFNLTFSWPMSKVNIVQSLSAYPLNSSCVIVSWILSPSDYKLMYFIIEWKNLNEDGEIKWLRISSSVKKYYIHDHFIPIEKYQFSLYPIFMEGVGKPKIINSFTQDDIEKHQSDAGLYVIVPVIISSSILLLGTLLISHQRMKKLFWEDVPNPKNCSWAQGLNFQKRTDILDPPARATMTSKVYDPEQRKRMITGPQWWARCKQMNVLDSFINYYDSEKHAENAVIFLHGNAASSYLWRHVVPHIEPVARCIIPDLIGMGKSGKSGNGSYRLLDHYKYLTAWFELLNLPKKIIFVGHDWGACLAFHYSYEHQDKIKAIVHAESVVDVIESWDEWPDIEEDIALIKSEEGEKMVLENNFFVETMLPSKIMRKLEPEEFAAYLEPFKEKGEVRRPTLSWPREIPLVKGGKPDVVQIVRNYNAYLRASDDLPKMFIESDPGFFSNAIVEGAKKFPNTEFVKVKGLHFSQEDAPDEMGKYIKSFVERVLKNEQ
notes: Expressed in COS, HeLa or HEK 293 cells; also assayed in membranes and extracts; also called OB-R-Luc; donor fusion protein
